Laboratory results from patent publication US20180155451A1 (published 2018).

T1: FcγRIIb (human, UniProt P31994 43-217)
T1 construct: extracellular domain; also called FcgRIIb; 2b
T1 sequence (looked up): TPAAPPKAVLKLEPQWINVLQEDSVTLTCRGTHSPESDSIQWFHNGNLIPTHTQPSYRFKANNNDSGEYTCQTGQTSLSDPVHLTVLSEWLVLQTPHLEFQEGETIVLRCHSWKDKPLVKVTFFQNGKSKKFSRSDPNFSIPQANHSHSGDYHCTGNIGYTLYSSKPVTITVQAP

B1: GpH7-A5/GpH7-B3 variant S324_15Y/GpL16-k0 (antibody, human IgG1, kappa)
heavy 1: not shown
heavy 2: not shown
light: DIVMTQSPLSLPVTPGEPASISCQASESLVHSNRNTYLHWYLQKPGQSPQLLIYKVSNRFSGVPDRFSGSGSGTDFTLKISRVEAEDVGVYYCSQNTHVPPTFGQGTKVEIERTVAAPSVFIFPPSDEQLKSGTASVVCLLNNFYPREAKVQWKVDNALQSGNSQESVTEQDSKDSTYSLSSTLTLSKADYEKHKVYACEVTHQGLSSPVTKSFNRGEC
notes: heterodimerized IgG1, one H chain mutated; also called He Ab
B2: GpH7-B3 variant Y300_01G/GpL16-k0 (antibody, human IgG1, kappa)
heavy: not shown
light: B1 light
notes: homodimerized IgG1; mutation in both H chains; also called Ho Ab
B3: GpH7-A5/GpH7-B3 variant L328_11K/GpL16-k0 (antibody, human IgG1, kappa)
heavy 1: not shown
heavy 2: not shown
light: B1 light
notes: He Ab: heterodimerized anti-glypican-3 IgG1, substitution in one H chain only; also called He Ab L328K
B4: GpH7-B3 variant Y296_10E/GpL16-k0 (antibody, human IgG1, kappa)
heavy: not shown
light: B1 light
notes: as for B2
B5: GpH7-A5/GpH7-B3 variant Y300_13S/GpL16-k0 (antibody, human IgG1, kappa)
heavy 1: not shown
heavy 2: not shown
light: B1 light
notes: as for B1
B6: GpH7-B3 variant T335_19Q/GpL16-k0 (antibody, human IgG1, kappa)
heavy: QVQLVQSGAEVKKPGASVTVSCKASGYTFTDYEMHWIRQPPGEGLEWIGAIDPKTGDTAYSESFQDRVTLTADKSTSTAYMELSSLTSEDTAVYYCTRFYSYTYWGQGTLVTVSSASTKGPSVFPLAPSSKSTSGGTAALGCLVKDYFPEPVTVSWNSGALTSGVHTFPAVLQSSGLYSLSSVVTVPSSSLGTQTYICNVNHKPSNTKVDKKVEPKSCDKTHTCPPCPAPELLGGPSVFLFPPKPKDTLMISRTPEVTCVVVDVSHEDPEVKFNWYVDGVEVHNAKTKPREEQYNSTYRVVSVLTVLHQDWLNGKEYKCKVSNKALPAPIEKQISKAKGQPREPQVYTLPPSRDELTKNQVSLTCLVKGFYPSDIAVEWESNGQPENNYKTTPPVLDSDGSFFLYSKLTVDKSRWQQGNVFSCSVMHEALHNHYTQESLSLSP
light: B1 light
notes: as for B2
B7: GpH7-B3 variant T335_20W/GpL16-k0 (antibody, human IgG1, kappa)
heavy: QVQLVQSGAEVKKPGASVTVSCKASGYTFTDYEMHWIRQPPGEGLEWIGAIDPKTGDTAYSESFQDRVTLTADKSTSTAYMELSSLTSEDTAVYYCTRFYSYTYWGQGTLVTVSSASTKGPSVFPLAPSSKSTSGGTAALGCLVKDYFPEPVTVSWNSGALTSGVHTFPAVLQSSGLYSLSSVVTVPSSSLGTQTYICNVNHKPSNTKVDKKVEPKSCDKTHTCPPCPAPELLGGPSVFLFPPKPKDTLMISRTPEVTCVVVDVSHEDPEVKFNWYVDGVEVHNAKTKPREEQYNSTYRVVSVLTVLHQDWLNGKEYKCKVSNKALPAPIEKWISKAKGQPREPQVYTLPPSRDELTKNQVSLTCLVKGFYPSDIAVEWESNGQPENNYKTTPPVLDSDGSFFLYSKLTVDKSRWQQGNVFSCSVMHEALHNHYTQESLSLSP
light: B1 light
notes: as for B2
B8: GpH7-A5/GpH7-B3 variant L328_12R/GpL16-k0 (antibody, human IgG1, kappa)
heavy 1: not shown
heavy 2: not shown
light: B1 light
notes: He Ab: heterodimerized anti-glypican-3 IgG1, substitution in one H chain only; also called He Ab L328R
B9: GpH7-B3 variant T335_18N/GpL16-k0 (antibody, human IgG1, kappa)
heavy: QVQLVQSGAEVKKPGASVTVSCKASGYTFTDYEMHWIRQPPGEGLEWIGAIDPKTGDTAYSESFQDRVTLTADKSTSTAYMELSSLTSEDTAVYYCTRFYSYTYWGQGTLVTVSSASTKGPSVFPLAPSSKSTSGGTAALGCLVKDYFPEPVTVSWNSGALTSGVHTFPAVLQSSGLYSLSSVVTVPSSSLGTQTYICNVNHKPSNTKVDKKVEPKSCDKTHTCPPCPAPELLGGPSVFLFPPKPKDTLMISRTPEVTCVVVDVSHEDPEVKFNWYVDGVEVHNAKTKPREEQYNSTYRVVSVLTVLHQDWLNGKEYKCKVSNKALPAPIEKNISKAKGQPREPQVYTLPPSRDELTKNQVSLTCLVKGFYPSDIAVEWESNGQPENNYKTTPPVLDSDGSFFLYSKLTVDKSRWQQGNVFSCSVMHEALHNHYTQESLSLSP
light: B1 light
notes: as for B2
B10: GpH7-A5/GpH7-B3 variant Y300_09D/GpL16-k0 (antibody, human IgG1, kappa)
heavy 1: not shown
heavy 2: not shown
light: B1 light
notes: as for B1
B11: GpH7-B3 variant Y296_18N/GpL16-k0 (antibody, human IgG1, kappa)
heavy: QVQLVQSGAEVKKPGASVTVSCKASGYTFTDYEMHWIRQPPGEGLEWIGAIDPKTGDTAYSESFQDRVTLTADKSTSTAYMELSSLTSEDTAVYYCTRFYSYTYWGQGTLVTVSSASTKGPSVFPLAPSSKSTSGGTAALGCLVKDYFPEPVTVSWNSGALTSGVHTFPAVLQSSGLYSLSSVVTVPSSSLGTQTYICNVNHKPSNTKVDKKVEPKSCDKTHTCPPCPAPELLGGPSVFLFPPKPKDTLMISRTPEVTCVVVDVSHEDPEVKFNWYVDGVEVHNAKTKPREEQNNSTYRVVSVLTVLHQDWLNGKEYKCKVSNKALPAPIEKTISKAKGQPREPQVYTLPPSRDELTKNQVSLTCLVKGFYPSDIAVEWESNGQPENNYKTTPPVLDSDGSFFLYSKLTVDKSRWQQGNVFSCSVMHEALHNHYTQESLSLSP
light: B1 light
notes: as for B2
B12: GpH7-A5/GpH7-B3 variant Y300_05P/GpL16-k0 (antibody, human IgG1, kappa)
heavy 1: not shown
heavy 2: not shown
light: B1 light
notes: as for B1
B13: GpH7-A5/GpH7-B3 variant S324_18N/GpL16-k0 (antibody, human IgG1, kappa)
heavy 1: not shown
heavy 2: not shown
light: B1 light
notes: as for B1
B14: GpH7-A5/GpH7-B3 variant Y300_14T/GpL16-k0 (antibody, human IgG1, kappa)
heavy 1: not shown
heavy 2: not shown
light: B1 light
notes: as for B1
B15: GpH7-B3 variant Y296_11K/GpL16-k0 (antibody, human IgG1, kappa)
heavy: not shown
light: B1 light
notes: as for B2
B16: GpH7-A5/GpH7-B3 variant Y300_03V/GpL16-k0 (antibody, human IgG1, kappa)
heavy 1: not shown
heavy 2: not shown
light: B1 light
notes: as for B1
B17: GpH7-B3 variant Y296_12R/GpL16-k0 (antibody, human IgG1, kappa)
heavy: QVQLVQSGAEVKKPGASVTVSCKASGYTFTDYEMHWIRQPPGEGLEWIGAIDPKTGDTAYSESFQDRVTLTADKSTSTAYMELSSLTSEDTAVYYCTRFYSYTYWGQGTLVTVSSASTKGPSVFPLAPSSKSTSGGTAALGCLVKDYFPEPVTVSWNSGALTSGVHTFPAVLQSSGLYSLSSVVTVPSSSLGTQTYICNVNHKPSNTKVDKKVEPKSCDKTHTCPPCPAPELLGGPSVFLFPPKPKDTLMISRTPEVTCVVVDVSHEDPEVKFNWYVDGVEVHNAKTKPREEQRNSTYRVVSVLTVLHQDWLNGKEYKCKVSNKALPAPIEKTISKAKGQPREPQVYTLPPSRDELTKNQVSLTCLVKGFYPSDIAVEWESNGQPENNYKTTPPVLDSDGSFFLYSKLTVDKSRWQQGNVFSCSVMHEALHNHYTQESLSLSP
light: B1 light
notes: as for B2
B18: GpH7-B3 variant Y296_14T/GpL16-k0 (antibody, human IgG1, kappa)
heavy: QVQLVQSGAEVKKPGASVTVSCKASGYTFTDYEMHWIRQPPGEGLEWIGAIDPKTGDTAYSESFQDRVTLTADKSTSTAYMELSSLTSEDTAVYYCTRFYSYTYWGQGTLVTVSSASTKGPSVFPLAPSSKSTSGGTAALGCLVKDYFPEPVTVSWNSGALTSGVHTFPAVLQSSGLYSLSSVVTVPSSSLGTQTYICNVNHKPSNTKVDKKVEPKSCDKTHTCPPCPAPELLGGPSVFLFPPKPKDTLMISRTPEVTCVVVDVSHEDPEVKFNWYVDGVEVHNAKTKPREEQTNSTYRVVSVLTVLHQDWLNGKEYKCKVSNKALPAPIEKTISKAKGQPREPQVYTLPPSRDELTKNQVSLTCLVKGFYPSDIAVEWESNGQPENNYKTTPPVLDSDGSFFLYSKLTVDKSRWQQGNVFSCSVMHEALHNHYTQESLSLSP
light: B1 light
notes: as for B2
B19: GpH7-A5/GpH7-B3 variant S324_19Q/GpL16-k0 (antibody, human IgG1, kappa)
heavy 1: not shown
heavy 2: not shown
light: B1 light
notes: as for B1
B20: GpH7-B3 variant T335_16H/GpL16-k0 (antibody, human IgG1, kappa)
heavy: not shown
light: B1 light
notes: as for B2
B21: GpH7-B3 variant Y296_13S/GpL16-k0 (antibody, human IgG1, kappa)
heavy: not shown
light: B1 light
notes: as for B2
B22: GpH7-A5/GpH7-B3 variant S324_20W/GpL16-k0 (antibody, human IgG1, kappa)
heavy 1: not shown
heavy 2: not shown
light: B1 light
notes: as for B1
B23: GpH7-B3 variant Y296_06M/GpL16-k0 (antibody, human IgG1, kappa)
heavy: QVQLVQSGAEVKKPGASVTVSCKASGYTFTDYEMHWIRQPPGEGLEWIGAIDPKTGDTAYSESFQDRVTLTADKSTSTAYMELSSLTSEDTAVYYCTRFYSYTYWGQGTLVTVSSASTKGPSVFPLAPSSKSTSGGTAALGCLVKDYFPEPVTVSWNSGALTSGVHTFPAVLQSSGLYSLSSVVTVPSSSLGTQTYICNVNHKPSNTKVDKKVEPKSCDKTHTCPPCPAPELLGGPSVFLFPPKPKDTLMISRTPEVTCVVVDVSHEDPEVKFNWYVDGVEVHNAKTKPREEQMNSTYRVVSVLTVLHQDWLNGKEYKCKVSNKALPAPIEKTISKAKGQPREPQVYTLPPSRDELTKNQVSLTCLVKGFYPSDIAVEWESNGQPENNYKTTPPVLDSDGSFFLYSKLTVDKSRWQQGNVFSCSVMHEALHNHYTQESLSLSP
light: B1 light
notes: as for B2
B24: GpH7-A5/GpH7-B3 variant Y300_11K/GpL16-k0 (antibody, human IgG1, kappa)
heavy 1: not shown
heavy 2: not shown
light: B1 light
notes: as for B1
B25: GpH7-B3 variant Y296_16H/GpL16-k0 (antibody, human IgG1, kappa)
heavy: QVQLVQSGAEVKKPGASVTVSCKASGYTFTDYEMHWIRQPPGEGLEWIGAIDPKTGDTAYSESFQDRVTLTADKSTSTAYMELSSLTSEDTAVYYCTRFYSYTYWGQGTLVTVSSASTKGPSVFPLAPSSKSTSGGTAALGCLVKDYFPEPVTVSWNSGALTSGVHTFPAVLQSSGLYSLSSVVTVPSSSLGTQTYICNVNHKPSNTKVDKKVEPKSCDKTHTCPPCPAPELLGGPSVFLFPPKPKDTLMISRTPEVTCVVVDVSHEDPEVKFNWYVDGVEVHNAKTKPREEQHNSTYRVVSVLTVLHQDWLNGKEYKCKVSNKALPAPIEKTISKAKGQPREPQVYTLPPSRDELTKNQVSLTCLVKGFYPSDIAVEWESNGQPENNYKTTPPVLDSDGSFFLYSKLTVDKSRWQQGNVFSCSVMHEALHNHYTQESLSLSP
light: B1 light
notes: as for B2
B26: GpH7-B3 variant Y296_19Q/GpL16-k0 (antibody, human IgG1, kappa)
heavy: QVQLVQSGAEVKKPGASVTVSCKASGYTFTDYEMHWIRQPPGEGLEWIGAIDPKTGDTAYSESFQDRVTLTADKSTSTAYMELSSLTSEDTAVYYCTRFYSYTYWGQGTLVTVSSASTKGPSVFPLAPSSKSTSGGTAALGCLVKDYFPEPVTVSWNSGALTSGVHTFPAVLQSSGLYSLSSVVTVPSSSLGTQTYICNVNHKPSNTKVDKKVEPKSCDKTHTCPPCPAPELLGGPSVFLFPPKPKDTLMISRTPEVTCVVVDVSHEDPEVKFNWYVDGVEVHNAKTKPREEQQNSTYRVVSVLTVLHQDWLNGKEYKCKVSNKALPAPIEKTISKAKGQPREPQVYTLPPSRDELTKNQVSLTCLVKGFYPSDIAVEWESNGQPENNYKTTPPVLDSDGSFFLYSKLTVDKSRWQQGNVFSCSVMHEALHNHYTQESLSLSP
light: B1 light
notes: as for B2
B27: GpH7-A5/GpH7-B3 variant Y300_07I/GpL16-k0 (antibody, human IgG1, kappa)
heavy 1: not shown
heavy 2: not shown
light: B1 light
notes: as for B1
B28: GpH7-A5/GpH7-B3 variant S324_16H/GpL16-k0 (antibody, human IgG1, kappa)
heavy 1: not shown
heavy 2: not shown
light: B1 light
notes: as for B1
B29: GpH7-A5/GpH7-B3 variant Y300_08L/GpL16-k0 (antibody, human IgG1, kappa)
heavy 1: not shown
heavy 2: not shown
light: B1 light
notes: as for B1
B30: GpH7-A5/GpH7-B3 variant Y300_06M/GpL16-k0 (antibody, human IgG1, kappa)
heavy 1: not shown
heavy 2: not shown
light: B1 light
notes: as for B1
B31: GpH7-A5/GpH7-B3 variant Y300_20W/GpL16-k0 (antibody, human IgG1, kappa)
heavy 1: not shown
heavy 2: not shown
light: B1 light
notes: as for B1
B32: GpH7-A5/GpH7-B3 variant Y300_12R/GpL16-k0 (antibody, human IgG1, kappa)
heavy 1: not shown
heavy 2: not shown
light: B1 light
notes: as for B1
B33: GpH7-A5/GpH7-B3 variant Y300_16H/GpL16-k0 (antibody, human IgG1, kappa)
heavy 1: not shown
heavy 2: not shown
light: B1 light
notes: as for B1
B34: GpH7-A5/GpH7-B3 variant Y300_02A/GpL16-k0 (antibody, human IgG1, kappa)
heavy 1: not shown
heavy 2: not shown
light: B1 light
notes: as for B1

How the values were obtained:
[1] = biological target: T2, FcγRIa (human, UniProt P12314 16-292); test: SPR (Biacore); He/Con_1a (FcgRIa) divided by He/Con_2b (FcgRIIb)
T2 construct: extracellular domain; also called FcgRI; FcgRIa
Procedure, shortened: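 Biacore T100, HBS-EP+ running buffer, 25° C: heterodimerized antibodies captured on antigen-peptide chips (CM5 amine-coupled or SA biotinylated), His-tagged FcγR extracellular domains injected as analyte.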
T2 sequence (P12314 16-292): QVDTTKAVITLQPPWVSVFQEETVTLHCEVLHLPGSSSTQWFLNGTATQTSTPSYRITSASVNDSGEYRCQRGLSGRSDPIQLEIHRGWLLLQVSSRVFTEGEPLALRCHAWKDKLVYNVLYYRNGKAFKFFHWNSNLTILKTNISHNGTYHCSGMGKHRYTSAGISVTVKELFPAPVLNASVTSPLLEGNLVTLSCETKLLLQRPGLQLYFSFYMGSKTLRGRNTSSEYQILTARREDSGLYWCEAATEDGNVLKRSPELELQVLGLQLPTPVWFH

[2] = biological target: T2, FcγRIa; test: SPR (Biacore), relative to GpH7-A5/GpH7-B3/GpL16-k0 = 100
[3] = biological target: T1, FcγRIIb; test: as above
[4] = biological target: T3, FcγRIa (human, UniProt P12314 16-292); test: SPR (Biacore), antibody captured on antigen peptide chip, FcγRIa as analyte; relative binding amount
T3 construct: extracellular domain; also called FcgRI; CD64; not shown: C-terminal His tag
Description: (§1) Analysis of interaction between objective antibody and the FcγR was carried out using Biacore T100 (GE Healthcare). HBS-EP+ (GE Healthcare) was used as the running buffer, and the measurement temperature was set to 25° C. Chips produced by immobilizing the antigen peptide by the amine coupling method to a Series S Sencor Chip CM5 (GE Healthcare), or alternatively, chips produced by allowing preliminarily biotinylated antigen peptides to interact with and immobilize onto a Series S Sensor Chip SA (certified) (GE Healthcare) were used. Antibodies of interest were captured onto an antigen peptide-immobilized chip, and allowed to interact to each FcγR diluted with running buffer. To regenerate and repeatedly use the chip, the antibodies captured on the chip were washed off by reacting 10 mM glycine-HCl, pH 1.5.
T3 sequence (P12314 16-292): as above

[5] = biological target: T4, FcγRIa extracellular domain with C-terminal His tag (human, UniProt P12314 16-292); test: SPR (Biacore), antibody captured on antigen peptide chip, FcγR as analyte; binding relative to GpH7-A5/GpH7-B3/GpL16-k0 = 100
T4 construct: extracellular domain; Soluble receptor expressed in FreeStyle293 cells; analyte in Biacore; also called FcgRI; FcgRIa; not shown: His tag at the C terminus
Description: (§2) The heterodimerized antibodies He Abs in which one of the H chains was introduced with an alteration were assayed for their binding activities to each activating FcγR and inhibitory FcγR according to the method described in Example 4. […] The activating FcγRs in FIGS. 26, 27, 28, and 29 are FcγRIa, FcγRIIa (R), FcγRIIa (H), and FcγRIIIa, respectively.
as §1

[6] = biological target: T4, FcγRIa extracellular domain with …; test: SPR (Biacore); He/Con_1a divided by He/Con_2b (FcγRIIb)
Description: as §2, §1

T4 sequence (P12314 16-292): as above

| Binder | Ia/IIb He_1a/2b [1] | He/Con_1a (Ia binding) [2] | He/Con_2b (IIb binding) [3] | Ho/Con_1a [4] | He/Con_1a (Ia binding) [5] | He_1a/2b (Ia/IIb) [6] |
| --- | --- | --- | --- | --- | --- | --- |
| B1 | 1.29 | 114 relative (control = 100) | 88.2 relative (control = 100) |  |  |  |
| B2 |  |  |  | 109 % of control (GpH7-B3/GpL16-k0 = 100) |  |  |
| B3 |  |  |  |  | 79.2 % of control (control = 100) | 10.5 |
| B4 |  |  |  | 106 % of control (GpH7-B3/GpL16-k0 = 100) |  |  |
| B5 | 2.06 | 111 relative (control = 100) | 53.9 relative (control = 100) |  |  |  |
| B6 |  |  |  | 105 % of control (GpH7-B3/GpL16-k0 = 100) |  |  |
| B7 |  |  |  | 104 % of control (GpH7-B3/GpL16-k0 = 100) |  |  |
| B8 |  |  |  |  | 78.6 % of control (control = 100) | 8.51 |
| B9 |  |  |  | 102 % of control (GpH7-B3/GpL16-k0 = 100) |  |  |
| B10 | 1.21 | 112 relative (control = 100) | 93.2 relative (control = 100) |  |  |  |
| B11 |  |  |  | 105 % of control (GpH7-B3/GpL16-k0 = 100) |  |  |
| B12 | 8.22 | 60.2 relative (control = 100) | 7.3 relative (control = 100) |  |  |  |
| B13 | 1.42 | 116 relative (control = 100) | 81.1 relative (control = 100) |  |  |  |
| B14 | 2.01 | 112 relative (control = 100) | 55.6 relative (control = 100) |  |  |  |
| B15 |  |  |  | 102 % of control (GpH7-B3/GpL16-k0 = 100) |  |  |
| B16 | 1.58 | 117 relative (control = 100) | 73.9 relative (control = 100) |  |  |  |
| B17 |  |  |  | 103 % of control (GpH7-B3/GpL16-k0 = 100) |  |  |

| Binder | Ia/IIb He_1a/2b [1] | He/Con_1a (Ia binding) [2] | He/Con_2b (IIb binding) [3] | Ho/Con_1a [4] | He/Con_1a (Ia binding) [5] | He_1a/2b (Ia/IIb) [6] |
| --- | --- | --- | --- | --- | --- | --- |
| B18 |  |  |  | 105 % of control (GpH7-B3/GpL16-k0 = 100) |  |  |
| B19 | 1.68 | 112 relative (control = 100) | 66.8 relative (control = 100) |  |  |  |
| B20 |  |  |  | 104 % of control (GpH7-B3/GpL16-k0 = 100) |  |  |
| B21 |  |  |  | 105 % of control (GpH7-B3/GpL16-k0 = 100) |  |  |
| B22 | 1.31 | 114 relative (control = 100) | 87.5 relative (control = 100) |  |  |  |
| B23 |  |  |  | 104 % of control (GpH7-B3/GpL16-k0 = 100) |  |  |
| B24 | 2.07 | 107 relative (control = 100) | 51.6 relative (control = 100) |  |  |  |
| B25 |  |  |  | 105 % of control (GpH7-B3/GpL16-k0 = 100) |  |  |
| B26 |  |  |  | 104 % of control (GpH7-B3/GpL16-k0 = 100) |  |  |
| B27 | 1.45 | 108 relative (control = 100) | 74.5 relative (control = 100) |  |  |  |
| B28 | 1.35 | 113 relative (control = 100) | 83.5 relative (control = 100) |  |  |  |
| B29 | 1.54 | 113 relative (control = 100) | 73.6 relative (control = 100) |  |  |  |
| B30 | 1.33 | 112 relative (control = 100) | 84.3 relative (control = 100) |  |  |  |
| B31 | 1.34 | 112 relative (control = 100) | 84.1 relative (control = 100) |  |  |  |
| B32 | 2.54 | 105 relative (control = 100) | 41.2 relative (control = 100) |  |  |  |
| B33 | 1.27 | 111 relative (control = 100) | 87 relative (control = 100) |  |  |  |
| B34 | 1.62 | 112 relative (control = 100) | 69.2 relative (control = 100) |  |  |  |
